Source: the supplement of paper PMC10126150
± gives the standard deviation of the averaged measurements.

Test system: ATP
Assay: switch fluorescence ratio, 500 uM ATP over buffer (Cy3 cluster intensity, sum of 5 cycles each) (fold (ratio)); higher = stronger signal-on switching upon ATP binding; sequences stand for … in TCGTCGGCAGCGTCAGATGTGTATAAGAGACAGTTTTTTTTTTTTTTTTTTTTTTTTT…TC
Conditions: aptamer strand: ATP DNA aptamer (quencher-CACCTGGGGGAGTATTGCGGAGGAAGG + anchor), 100 nM annealed; ATP concentration: 500 uM
In short: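 The quencher-labelled ATP aptamer, at 100 nM, was annealed to Cy3-labelled switching-strand clusters on a modified Illumina MiSeq flow-cell. The clusters were imaged in selection buffer, then after 15 min with 500 uM ATP at 22 °C, and this buffer/ATP cycle ran five times with NaOH stripping and re-annealing between runs. Per-cluster fluorescence ratios, summed target-cycle over summed buffer-cycle Cy3 intensity, were averaged per switch-domain sequence. Clusters outside 100-1000 RFU were excluded.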
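Also: ATP exposure 15 min at 22 °C before imaging.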

TGATAGATGC
switch fluorescence ratio: 1.03 ± 0.025

TGATAGGGAG
switch fluorescence ratio: 0.982 ± 0.019

TGATAGGGGA
switch fluorescence ratio: 1.01 ± 0.047

TGATAGTCCT
switch fluorescence ratio: 1.03 ± 0.013

TGATATACTG
switch fluorescence ratio: 0.968 ± 0.026

TGATATGTAA
switch fluorescence ratio: 1.021 ± 0.0094

TGATATTGAG
switch fluorescence ratio: 1 ± 0.045

TGATATTTTT
switch fluorescence ratio: 0.998 ± 0.028

TGATCAGGAG
switch fluorescence ratio: 0.9853 ± 0.0053

TGATCATCTA
switch fluorescence ratio: 0.993 ± 0.024

TGATCGGCGG
switch fluorescence ratio: 1.02 ± 0.05

TGATCGGGGA
switch fluorescence ratio: 1.028 ± 0.0063

TGATCGGGTA
switch fluorescence ratio: 1 ± 0.011

TGATCTCTTT
switch fluorescence ratio: 1.03 ± 0.049

TGATCTGGGG
switch fluorescence ratio: 1.01 ± 0.033

TGATGAGATT
switch fluorescence ratio: 0.999 ± 0.02

TGATGAGCTC
switch fluorescence ratio: 0.983 ± 0.02

TGATGAGTCT
switch fluorescence ratio: 1.03 ± 0.062

TGATGATTTT
switch fluorescence ratio: 0.945 ± 0.017

TGATGCGGAT
switch fluorescence ratio: 1.016 ± 0.0013

TGATGCTTCA
switch fluorescence ratio: 1 ± 0.037

TGATGGAGAG
switch fluorescence ratio: 0.97 ± 0.034

TGATGGAGGC
switch fluorescence ratio: 1.01 ± 0.013

TGATGGCCTG
switch fluorescence ratio: 0.986 ± 0.067

TGATGGCGGG
switch fluorescence ratio: 0.9917 ± 0.0042

TGATGGCGGT
switch fluorescence ratio: 1.04 ± 0.065

TGATGGGCAG
switch fluorescence ratio: 1.01 ± 0.047

TGATGGGGAT
switch fluorescence ratio: 1.03 ± 0.017

TGATGGGGGA
switch fluorescence ratio: 1.01 ± 0.03

TGATGGGGTA
switch fluorescence ratio: 1.04 ± 0.019

TGATGGGTGC
switch fluorescence ratio: 1.04 ± 0.045

TGATGGGTTA
switch fluorescence ratio: 0.962 ± 0.029

TGATGGTATA
switch fluorescence ratio: 1.01 ± 0.025

TGATGGTGGG
switch fluorescence ratio: 0.979 ± 0.029

TGATGGTGTC
switch fluorescence ratio: 0.968 ± 0.011

TGATGTCCGT
switch fluorescence ratio: 0.997 ± 0.02

TGATGTCGGG
switch fluorescence ratio: 0.999 ± 0.034

TGATGTGAAA
switch fluorescence ratio: 0.977 ± 0.015

TGATGTTGT
switch fluorescence ratio: 1.005 ± 0.0071

TGATTAAGGG
switch fluorescence ratio: 0.9752 ± 0.0072

TGATTACAGT
switch fluorescence ratio: 1 ± 0.018

TGATTAGGGG
switch fluorescence ratio: 0.9948 ± 0.0096

TGATTCAGTA
switch fluorescence ratio: 0.974 ± 0.011

TGATTCTAAT
switch fluorescence ratio: 1 ± 0.042

TGATTGAATG
switch fluorescence ratio: 0.9785 ± 0.001

TGATTGACGG
switch fluorescence ratio: 0.975 ± 0.015

TGATTGAGGA
switch fluorescence ratio: 0.981 ± 0.027

TGATTGATAT
switch fluorescence ratio: 1.01 ± 0.012

TGATTGCCCG
switch fluorescence ratio: 0.9376 ± 0.0077

TGATTGCTAT
switch fluorescence ratio: 1.01 ± 0.039

TGATTGGGCT
switch fluorescence ratio: 1.03 ± 0.015

TGATTGGGGA
switch fluorescence ratio: 1.005 ± 0.0043

TGATTGGGTT
switch fluorescence ratio: 0.975 ± 0.022

TGATTGGTTT
switch fluorescence ratio: 1 ± 0.011

TGATTGTGAA
switch fluorescence ratio: 1 ± 0.024

TGATTTAGAG
switch fluorescence ratio: 0.998 ± 0.013

TGATTTAGTT
switch fluorescence ratio: 0.989 ± 0.02

TGATTTGCGA
switch fluorescence ratio: 0.987 ± 0.02

TGATTTTACC
switch fluorescence ratio: 1.06 ± 0.015

TGATTTTAGG
switch fluorescence ratio: 0.9832 ± 0.0061

TGATTTTCGT
switch fluorescence ratio: 1 ± 0.044

TGCAAAAGGT
switch fluorescence ratio: 1.02 ± 0.087

TGCAAAGGGG
switch fluorescence ratio: 1.01 ± 0.029

TGCAAGAGTG
switch fluorescence ratio: 1.03 ± 0.011

TGCAATCGGT
switch fluorescence ratio: 1.22 ± 0.065

TGCAATTACT
switch fluorescence ratio: 3.21 ± 0.24

TGCAATTGGT
switch fluorescence ratio: 1.01 ± 0.016

TGCACAAGAT
switch fluorescence ratio: 1.02 ± 0.011

TGCACCATTT
switch fluorescence ratio: 1.02 ± 0.014

TGCACGGGGG
switch fluorescence ratio: 1.03 ± 0.013

TGCACTGTTT
switch fluorescence ratio: 1.01 ± 0.038

TGCACTTTTA
switch fluorescence ratio: 1.01 ± 0.02

TGCAGAAAAT
switch fluorescence ratio: 1.01 ± 0.036

TGCAGACGGT
switch fluorescence ratio: 1.2 ± 0.14

TGCAGCTGGT
switch fluorescence ratio: 0.98 ± 0.021

TGCAGGGTTT
switch fluorescence ratio: 0.9906 ± 0.0082

TGCAGGTTAC
switch fluorescence ratio: 1.12 ± 0.015

TGCAGTAGTT
switch fluorescence ratio: 1.012 ± 0.005

TGCAGTCATG
switch fluorescence ratio: 0.995 ± 0.03

TGCAGTGATC
switch fluorescence ratio: 1.11 ± 0.056

TGCAGTGTGC
switch fluorescence ratio: 1.01 ± 0.015

TGCAGTGTGG
switch fluorescence ratio: 1.005 ± 0.0078

TGCATAAATT
switch fluorescence ratio: 0.9873 ± 0.0034

TGCATAACGT
switch fluorescence ratio: 1.02 ± 0.024

TGCATCAATA
switch fluorescence ratio: 1.03 ± 0.039

TGCATCATTG
switch fluorescence ratio: 0.988 ± 0.039

TGCATGATTG
switch fluorescence ratio: 0.967 ± 0.02

TGCATGGGTG
switch fluorescence ratio: 1.06 ± 0.039

TGCATGTACA
switch fluorescence ratio: 1.04 ± 0.037

TGCATTAGGA
switch fluorescence ratio: 1.02 ± 0.024

TGCATTCGTT
switch fluorescence ratio: 1.008 ± 0.009

TGCATTGGGC
switch fluorescence ratio: 1.03 ± 0.013

TGCATTGGGG
switch fluorescence ratio: 1 ± 0.024

TGCCACGCTC
switch fluorescence ratio: 1.06 ± 0.029

TGCCACTCCT
switch fluorescence ratio: 1.0495 ± 4.1e-05

TGCCATAGG
switch fluorescence ratio: 1.008 ± 0.0032

TGCCATCCGA
switch fluorescence ratio: 1.09 ± 0.054

TGCCATGACG
switch fluorescence ratio: 0.936 ± 0.046

TGCCATTGGG
switch fluorescence ratio: 1.08 ± 0.12

TGCCCATAGT
switch fluorescence ratio: 1.009 ± 0.003

TGCCCCACGT
switch fluorescence ratio: 1.17 ± 0.16

TGCCGCAGAG
switch fluorescence ratio: 1.6 ± 0.16

TGCCGGGAGT
switch fluorescence ratio: 1.41 ± 0.61

TGCCGTAGGG
switch fluorescence ratio: 1.04 ± 0.041

TGCCGTAGTC
switch fluorescence ratio: 0.9685 ± 0.0092

TGCCGTTCTT
switch fluorescence ratio: 1 ± 0.021

TGCCGTTTGG
switch fluorescence ratio: 1 ± 0.03

TGCCTATGGA
switch fluorescence ratio: 1 ± 0.014

TGCCTCTAGA
switch fluorescence ratio: 1.1 ± 0.044

TGCGAAAGAT
switch fluorescence ratio: 1.05 ± 0.086

TGCGAACCTT
switch fluorescence ratio: 1.71 ± 0.12

TGCGAAGGGT
switch fluorescence ratio: 0.9856 ± 0.0046

TGCGAAGGTT
switch fluorescence ratio: 1.04 ± 0.069

TGCGACGAGG
switch fluorescence ratio: 1.04 ± 0.0011

TGCGATGCGG
switch fluorescence ratio: 0.979 ± 0.037

TGCGCCCGTT
switch fluorescence ratio: 1 ± 0.033

TGCGCCGTTT
switch fluorescence ratio: 1.01 ± 0.017

TGCGCCTGGG
switch fluorescence ratio: 1.03 ± 0.013

TGCGCGAAAG
switch fluorescence ratio: 0.98 ± 0.042

TGCGCTTTTT
switch fluorescence ratio: 1.03 ± 0.061

TGCGGCTG
switch fluorescence ratio: 1.05 ± 0.039

TGCGGGAGGG
switch fluorescence ratio: 1.26 ± 0.35

TGCGGGGGGG
switch fluorescence ratio: 1.03 ± 0.038

TGCGGTAGGT
switch fluorescence ratio: 0.991 ± 0.018

TGCGGTGACC
switch fluorescence ratio: 1 ± 0.014

TGCGGTGTCG
switch fluorescence ratio: 1.06 ± 0.083

TGCGGTTATG
switch fluorescence ratio: 1.07 ± 0.051

TGCGGTTTTT
switch fluorescence ratio: 0.998 ± 0.02

TGCGTACTAT
switch fluorescence ratio: 1.06 ± 0.1

TGCGTAGGAA
switch fluorescence ratio: 1.061 ± 0.0049

TGCGTATTTT
switch fluorescence ratio: 1.025 ± 0.0031

TGCGTCAGGC
switch fluorescence ratio: 1.09 ± 0.045

TGCGTTAAAA
switch fluorescence ratio: 0.994 ± 0.042

TGCGTTCAAG
switch fluorescence ratio: 0.9721 ± 0.0056

TGCGTTCGGC
switch fluorescence ratio: 0.963 ± 0.041

TGCGTTGCTA
switch fluorescence ratio: 0.996 ± 0.038

TGCTAACAGG
switch fluorescence ratio: 1.022 ± 0.0078

TGCTAGAACT
switch fluorescence ratio: 0.972 ± 0.019

TGCTAGGGTC
switch fluorescence ratio: 0.994 ± 0.025

TGCTAGGTCA
switch fluorescence ratio: 0.969 ± 0.0059

TGCTATGGGG
switch fluorescence ratio: 1 ± 0.016

TGCTATGGGT
switch fluorescence ratio: 0.975 ± 0.023

TGCTCCGTCG
switch fluorescence ratio: 1.2 ± 0.039

TGCTCCTTCT
switch fluorescence ratio: 1.09 ± 0.011

TGCTCTGGGG
switch fluorescence ratio: 0.996 ± 0.015

TGCTCTTTGG
switch fluorescence ratio: 1 ± 0.025

TGCTCTTTTT
switch fluorescence ratio: 1 ± 0.019

TGCTGGCGGC
switch fluorescence ratio: 0.982 ± 0.03

TGCTGGGATT
switch fluorescence ratio: 1.02 ± 0.044

TGCTGGGCTG
switch fluorescence ratio: 1.01 ± 0.025

TGCTGGGGAC
switch fluorescence ratio: 0.992 ± 0.051

TGCTGGGGGG
switch fluorescence ratio: 0.981 ± 0.023

TGCTGGGGTT
switch fluorescence ratio: 0.9764 ± 0.0047

TGCTGGTGTA
switch fluorescence ratio: 1.02 ± 0.025

TGCTGTACGA
switch fluorescence ratio: 1.11 ± 0.012

TGCTGTACGG
switch fluorescence ratio: 1.01 ± 0.046

TGCTGTGGGA
switch fluorescence ratio: 0.9689 ± 0.006

TGCTGTGTAC
switch fluorescence ratio: 1.084 ± 0.0095

TGCTGTTCTG
switch fluorescence ratio: 1.032 ± 0.0019

TGCTTAAGCA
switch fluorescence ratio: 0.982 ± 0.058

TGCTTAGGTT
switch fluorescence ratio: 0.988 ± 0.011

TGCTTATGGT
switch fluorescence ratio: 0.965 ± 0.029

TGCTTCGGGA
switch fluorescence ratio: 1.1288 ± 0.0008

TGCTTCGTGC
switch fluorescence ratio: 0.996 ± 0.012

TGCTTCTCCA
switch fluorescence ratio: 1.03 ± 0.036

TGCTTGAGGG
switch fluorescence ratio: 1.004 ± 0.0097

TGCTTTACAT
switch fluorescence ratio: 1.03 ± 0.014

TGCTTTACGG
switch fluorescence ratio: 1.009 ± 0.0082

TGCTTTTCCG
switch fluorescence ratio: 1.1 ± 0.07

TGCTTTTGGT
switch fluorescence ratio: 0.988 ± 0.022

TGGAAAAATT
switch fluorescence ratio: 1.03 ± 0.04

TGGAAAGAAG
switch fluorescence ratio: 1.02 ± 0.064

TGGAAGAGGC
switch fluorescence ratio: 1.47 ± 0.64

TGGAAGGGTA
switch fluorescence ratio: 0.9903 ± 0.0012

TGGAAGGTAT
switch fluorescence ratio: 0.9795 ± 0.0087

TGGAAGGTTG
switch fluorescence ratio: 0.9808 ± 0.0066

TGGAATGGTG
switch fluorescence ratio: 1.05 ± 0.015

TGGAATTAGT
switch fluorescence ratio: 0.986 ± 0.038

TGGACAGGGT
switch fluorescence ratio: 0.999 ± 0.017

TGGACATGGT
switch fluorescence ratio: 0.9856 ± 0.005

TGGACCAGTT
switch fluorescence ratio: 1.008 ± 0.0033

TGGACGAAGT
switch fluorescence ratio: 1.01 ± 0.023

TGGACGTGTC
switch fluorescence ratio: 1 ± 0.019

TGGACTATTA
switch fluorescence ratio: 1.015 ± 0.01

TGGACTTTTT
switch fluorescence ratio: 0.971 ± 0.057

TGGAGAAATA
switch fluorescence ratio: 1.01 ± 0.048

TGGAGATTAG
switch fluorescence ratio: 1.01 ± 0.054

TGGAGCGGTT
switch fluorescence ratio: 1.03 ± 0.032

TGGAGGAGAG
switch fluorescence ratio: 0.99 ± 0.018

TGGAGGGGCA
switch fluorescence ratio: 1.03 ± 0.022

TGGAGGGGGT
switch fluorescence ratio: 1.09 ± 0.28

TGGAGTAATT
switch fluorescence ratio: 1.06 ± 0.063

TGGAGTCGTG
switch fluorescence ratio: 0.9729 ± 0.0091

TGGATAAGAG
switch fluorescence ratio: 0.975 ± 0.019

TGGATATAGT
switch fluorescence ratio: 0.9937 ± 0.0038

TGGATATGGG
switch fluorescence ratio: 1.01 ± 0.028

TGGATCAAAT
switch fluorescence ratio: 0.9705 ± 0.0049

TGGATGAAGT
switch fluorescence ratio: 1 ± 0.047

TGGATGATTG
switch fluorescence ratio: 0.984 ± 0.022

TGGATGCATT
switch fluorescence ratio: 1.03 ± 0.015
